Experimental data: patent US20130064834A1 (published 2013)

B1: H1H316P (antibody, V domains shown)
VH: EVQLVESGGGLVQPGGSLRLSCAASGFTFNNYAMNWVRQAPGKGLDWVSTISGSGGTTNYADSVKGRFIISRDSSKHTLYLQMNSLRAEDTAVYYCAKDSNWGNFDLWGRGTLVTVSS
VL: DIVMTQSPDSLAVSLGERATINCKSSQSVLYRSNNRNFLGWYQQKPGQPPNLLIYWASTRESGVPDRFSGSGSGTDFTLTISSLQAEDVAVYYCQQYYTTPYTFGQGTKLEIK
notes: Fully human mAb made in CHO cells; also called mAb316P
B2: H1M300N (antibody, V domains shown)
VH: EMQLVESGGGLVQPGGSLRLSCAASGFTFSSHWMKWVRQAPGKGLEWVANINQDGSEKYYVDSVKGRFTISRDNAKNSLFLQMNSLRAEDTAVYYCARDIVLMVYDMDYYYYGMDVWGQGTTVTVSS
VL: not shown
notes: Fully human version made in CHO cells

Key:
Human PCSK9-myc-myc-his [1] = target: T1, Human PCSK9-myc-myc-his (human, UniProt Q8NBP7 31-692); experiment: SPR, antigen captured at low density, pH 7.4, 25C
T1 construct: also called hPCSK9-mmh; hPCSK9

hPCSK9(D374Y)-mmh [2] = target: T2, hPCSK9(D374Y)-mmh (human, UniProt Q8NBP7 31-692); experiment: SPR, mAb amine-coupled, 37C, pH 5.5
T2 construct: also called hPCSK(D374Y)-mmh
Source text: (§1) Briefly, mAbs were immobilized onto BIACORE™ CM5 sensor chips via amine coupling.

Human PCSK9-myc-myc-his [3] = target: T1, Human PCSK9-myc-myc-his; experiment: SPR, mAb amine-coupled, 37C, pH 5.5
Source text: as §1

[4] = target: T3, cynomolgus monkey (Macaca fascicularis) PCSK9, myc-myc-his tagged (cynomolgus monkey (Macaca fascicularis), UniProt A8T662 31-692 (Macaca nemestrina entry), limits assumed); experiment: SPR, mAb amine-coupled, 37C, pH 5.5
T3 construct: also called mfPCSK9-mmh; mfPCSK9
Source text: as §1

hPCSK9(D374Y)-mmh [5] = target: T2, hPCSK9(D374Y)-mmh; experiment: ELISA, mAb coated, 1.7 nM antigen
Human PCSK9-myc-myc-his [6] = target: T1, Human PCSK9-myc-myc-his; experiment: ELISA, mAb coated, 1.7 nM antigen
[7] = target: T3, cynomolgus monkey (Macaca fascicularis) …; experiment: ELISA, mAb coated, 1.7 nM antigen
[8] = target: T4, tagged rhesus monkey (Macaca mulata) PCSK9 (rhesus monkey (Macaca mulata), UniProt A8T666 31-692); experiment: ELISA, mAb coated, 1.7 nM antigen
T4 construct: also called mmPCSK9-mmh; mmPCSK9

[9] = target: T5, rat (Rattus norvegicus) PCSK9, myc-myc-his tagged (rat (Rattus norvegicus), UniProt P59996 31-691); experiment: ELISA, mAb coated, 1.7 nM antigen
T5 construct: also called rPCSK9-mmh; rPCSK9

[10] = target: T6, Chimeric protein #1 (mPro-hCat-mC-term-mmh) (mouse; human, UniProt Q80W65 35-694); experiment: ELISA, mAb coated, 1.7 nM antigen
T6 chain: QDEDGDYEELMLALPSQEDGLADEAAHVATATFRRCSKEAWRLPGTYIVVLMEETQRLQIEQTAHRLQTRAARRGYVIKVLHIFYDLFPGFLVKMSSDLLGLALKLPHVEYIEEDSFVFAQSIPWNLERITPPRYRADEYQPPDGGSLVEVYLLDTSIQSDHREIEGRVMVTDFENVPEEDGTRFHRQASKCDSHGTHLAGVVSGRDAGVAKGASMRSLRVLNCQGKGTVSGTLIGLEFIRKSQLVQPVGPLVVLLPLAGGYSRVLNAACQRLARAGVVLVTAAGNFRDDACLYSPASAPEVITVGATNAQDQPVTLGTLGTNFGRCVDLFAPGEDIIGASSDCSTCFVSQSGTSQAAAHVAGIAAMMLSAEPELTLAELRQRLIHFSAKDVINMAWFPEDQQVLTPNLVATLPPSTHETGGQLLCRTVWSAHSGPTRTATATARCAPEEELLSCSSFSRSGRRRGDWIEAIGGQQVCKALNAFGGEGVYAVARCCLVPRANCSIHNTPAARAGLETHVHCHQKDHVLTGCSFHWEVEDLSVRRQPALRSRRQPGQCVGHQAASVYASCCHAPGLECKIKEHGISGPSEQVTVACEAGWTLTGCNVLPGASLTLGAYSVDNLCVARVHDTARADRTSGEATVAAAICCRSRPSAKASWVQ

[11] = target: Chimeric protein #2 (hPro-mCat-mC-term-mmh) (human; mouse, UniProt Q80W65 19-694); experiment: ELISA, mAb coated, 1.7 nM antigen
[12] = target: T7, mouse PCSK9, myc-myc-his tagged (mouse, UniProt Q80W65 35-694); experiment: ELISA, mAb coated, 1.7 nM antigen
T7 construct: also called mPCSK9-mmh; mPCSK9

hPCSK9(T162R) = target: T8, hPCSK9(T162R) (human, UniProt Q8NBP7 31-692); experiment: ELISA, mAb coated, variant 0-5 nM
T8 construct: mmh-tagged variant hPCSK9
Procedure: (§2) Anti-PCSK9 mAbs were coated on a 96-well plate overnight at 4° C.

hPCSK9(E366K) = target: T9, hPCSK9(E366K) (human, UniProt Q8NBP7 31-692); experiment: ELISA, mAb coated, variant 0-5 nM
T9 construct: mmh-tagged variant hPCSK9
Procedure: as §2

hPCSK9(D374Y)-mmh [13] = target: T2, hPCSK9(D374Y)-mmh; experiment: SPR, mAb amine-coupled, 25C, pH 7.4
Source text: as §1

Human PCSK9-myc-myc-his [14] = target: T1, Human PCSK9-myc-myc-his; experiment: SPR, mAb amine-coupled, 25C, pH 7.4
Source text: as §1

[15] = target: T3, cynomolgus monkey (Macaca fascicularis) …; experiment: SPR, mAb amine-coupled, 25C, pH 7.4
Source text: as §1

Human PCSK9-myc-myc-his [16] = target: T1, Human PCSK9-myc-myc-his; experiment: cell-based or functional assay
hPCSK9(D374Y)-mmh [17] = target: T2, hPCSK9(D374Y)-mmh; experiment: SPR, mAb amine-coupled, 37C, pH 7.4
Source text: as §1

Human PCSK9-myc-myc-his [18] = target: T1, Human PCSK9-myc-myc-his; experiment: SPR, mAb amine-coupled, 37C, pH 7.4
Source text: as §1

[19] = target: T3, cynomolgus monkey (Macaca fascicularis) …; experiment: SPR, mAb amine-coupled, 37C, pH 7.4
Source text: as §1

Human PCSK9-myc-myc-his [20] = target: T1, Human PCSK9-myc-myc-his; experiment: SPR, antigen captured at high density, pH 7.4, 25C

T3 sequence (A8T662 31-692 limits assumed): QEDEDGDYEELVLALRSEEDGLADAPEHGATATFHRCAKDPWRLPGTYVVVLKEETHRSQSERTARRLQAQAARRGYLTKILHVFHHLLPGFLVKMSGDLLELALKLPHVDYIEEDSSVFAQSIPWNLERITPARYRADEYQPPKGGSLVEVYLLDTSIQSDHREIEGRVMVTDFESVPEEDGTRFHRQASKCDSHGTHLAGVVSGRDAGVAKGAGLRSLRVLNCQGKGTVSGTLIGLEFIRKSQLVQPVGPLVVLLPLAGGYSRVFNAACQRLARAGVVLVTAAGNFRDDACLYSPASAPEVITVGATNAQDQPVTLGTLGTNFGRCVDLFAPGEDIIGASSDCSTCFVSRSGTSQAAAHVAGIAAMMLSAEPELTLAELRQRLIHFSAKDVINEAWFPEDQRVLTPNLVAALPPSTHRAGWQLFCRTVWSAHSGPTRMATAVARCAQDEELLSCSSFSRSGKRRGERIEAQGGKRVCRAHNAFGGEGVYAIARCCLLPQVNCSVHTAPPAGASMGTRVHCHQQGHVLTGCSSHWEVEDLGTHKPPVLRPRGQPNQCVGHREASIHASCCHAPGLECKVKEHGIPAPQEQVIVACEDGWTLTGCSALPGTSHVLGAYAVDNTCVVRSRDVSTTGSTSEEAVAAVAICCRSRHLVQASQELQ
T5 sequence (P59996 31-691 limits assumed): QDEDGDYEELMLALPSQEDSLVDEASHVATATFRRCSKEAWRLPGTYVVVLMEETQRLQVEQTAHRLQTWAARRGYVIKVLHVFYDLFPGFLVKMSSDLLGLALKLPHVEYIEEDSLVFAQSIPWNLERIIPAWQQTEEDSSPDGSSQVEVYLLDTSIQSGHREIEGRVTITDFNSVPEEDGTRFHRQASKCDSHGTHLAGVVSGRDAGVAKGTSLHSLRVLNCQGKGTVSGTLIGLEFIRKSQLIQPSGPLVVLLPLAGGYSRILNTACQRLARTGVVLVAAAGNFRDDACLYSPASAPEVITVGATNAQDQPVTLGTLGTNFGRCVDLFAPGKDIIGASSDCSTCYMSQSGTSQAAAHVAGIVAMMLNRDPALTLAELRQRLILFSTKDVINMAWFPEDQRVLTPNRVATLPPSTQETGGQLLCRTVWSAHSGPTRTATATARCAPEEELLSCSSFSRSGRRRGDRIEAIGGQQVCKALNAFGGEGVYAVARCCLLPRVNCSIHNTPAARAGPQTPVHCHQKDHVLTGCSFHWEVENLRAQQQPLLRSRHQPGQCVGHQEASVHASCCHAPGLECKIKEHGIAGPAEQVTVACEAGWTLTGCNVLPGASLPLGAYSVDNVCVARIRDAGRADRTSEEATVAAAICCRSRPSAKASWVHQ
T4 sequence (A8T666 31-692 limits assumed): as the sequence (A8T662 31-692 limits assumed) above, with A607P, E639K counted along it

Binder | Kd (Human PCSK9-myc-myc-his [1]) [nM] | T1/2 (Human PCSK9-myc-myc-his [1]) [min] | Kd (hPCSK9(D374Y)-mmh [2]) [nM] | T1/2 (hPCSK9(D374Y)-mmh [2]) [min] | Kd (Human PCSK9-myc-myc-his [3]) [nM] | T1/2 (Human PCSK9-myc-myc-his [3]) [min] | Kd [4] [nM] | T1/2 [4] [min] | OD (hPCSK9(D374Y)-mmh [5]) [od] | OD (Human PCSK9-myc-myc-his [6]) [od] | OD [7] [od] | OD [8] [od] | OD [9] [od] | OD [10] [od] | OD [11] [od] | OD [12] [od] | OD (hPCSK9(T162R)) [od] | OD (hPCSK9(E366K)) [od] | Kd (hPCSK9(D374Y)-mmh [13]) [nM] | T1/2 (hPCSK9(D374Y)-mmh [13]) [min] | other results
B1 | 0.339 | 45 | 1.56 | 5 | 0.142 | 11 | 0.044 | 5 | > 1.5 | > 1.5 | > 1.5 | > 1.5 | > 1.5 | > 1.5 | > 1.5 | > 1.5 | > 1.5 | > 1.5 | 2.49 | 15 | Kd (Human PCSK9-myc-myc-his [14]): 1.26 nM; T1/2 (Human PCSK9-myc-myc-his [14]): 36 min; Kd [15]: 1.42 nM; T1/2 [15]: 42 min; IC50, LDL uptake in HepG2 cells with 50 nM hPCSK9-mmh (Human PCSK9-myc-myc-his [16]): 21.3 nM; Kd (hPCSK9(D374Y)-mmh [17]): 6.66 nM; T1/2 (hPCSK9(D374Y)-mmh [17]): 4 min; Kd (Human PCSK9-myc-myc-his [18]): 4 nM; T1/2 (Human PCSK9-myc-myc-his [18]): 9 min; Kd [19]: 3.77 nM; T1/2 [19]: 11 min; Kd (Human PCSK9-myc-myc-his [20]): 0.191 nM; T1/2 (Human PCSK9-myc-myc-his [20]): 74 min
B2 | 0.31 | 119 | 28 | 1 | 11.9 | 1 | 65.2 | 0.1 | > 1.5 | > 1.5 | > 1.5 | > 1.5 | < 0.7 | > 1.5 | > 1.5 | < 0.7 | > 1.5 | 0.7 to 1.5 | 1.31 | 46 | Kd (Human PCSK9-myc-myc-his [14]): 1.1 nM; T1/2 (Human PCSK9-myc-myc-his [14]): 76 min; Kd [15]: 2.17 nM; T1/2 [15]: 31 min; IC50, LDL uptake in HepG2 cells with 50 nM hPCSK9-mmh (Human PCSK9-myc-myc-his [16]): 22.1 nM; Kd (hPCSK9(D374Y)-mmh [17]): 2.61 nM; T1/2 (hPCSK9(D374Y)-mmh [17]): 14 min; Kd (Human PCSK9-myc-myc-his [18]): 2.47 nM; T1/2 (Human PCSK9-myc-myc-his [18]): 20 min; Kd [19]: 4.81 nM; T1/2 [19]: 8 min; Kd (Human PCSK9-myc-myc-his [20]): 0.065 nM; T1/2 (Human PCSK9-myc-myc-his [20]): 507 min
